Data set [1] concerns the target T1, hOGG1 K249Q (catalytically inactive) (human, UniProt O15527 1-345, K249Q). Description: EMSA. Background: In EMSA bound probe runs differently from free probe, usually more slowly.
For data set [2], the target named is T1, hOGG1 K249Q (catalytically inactive). Description: EMSA. This is another data set of the same source.

T1 sequence (O15527 whole entry K249Q): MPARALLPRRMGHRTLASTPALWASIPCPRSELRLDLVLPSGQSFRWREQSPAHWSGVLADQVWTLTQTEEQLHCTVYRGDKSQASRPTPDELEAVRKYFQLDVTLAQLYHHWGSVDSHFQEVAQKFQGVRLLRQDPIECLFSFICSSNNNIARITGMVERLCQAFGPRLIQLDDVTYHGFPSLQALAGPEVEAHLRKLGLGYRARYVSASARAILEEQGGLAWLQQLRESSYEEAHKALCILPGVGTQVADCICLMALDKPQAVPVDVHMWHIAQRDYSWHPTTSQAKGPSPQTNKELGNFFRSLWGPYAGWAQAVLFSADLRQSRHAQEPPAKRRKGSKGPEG

B1: Loop-HP (structured_DNA)
DNA: CAGCAGCAGCAGCAGCAGCAGCAGCAGCAG
modifications: 8-oxoG in 5th CAG repeat (G15)
For the molecule B1, in data set [1], the binding result was “no binding”.

B2: Stem-HP (structured_DNA)
DNA: CAGCAGCAGCAGCAGCAGCAGCAGCAGCAG
modifications: 8-oxoG in 2nd CAG repeat (G6)
For the molecule B2, the binding result in data set [1] is given as “no binding”.

B3: Stem-DUP (dsDNA)
DNA 1: CAGCAGCAGCAGCAGCAGCAGCAGCAGCAG
DNA 2: CTGCTGCTGCTGCTGCTGCTGCTGCTGCTG
modifications: 8-oxoG in 2nd CAG repeat (G6 of strand 1)
As usually defined, the Kd is the equilibrium constant for the complex coming apart. As to B3, in data set [2], the Kd is 21.7 ± 6.8 nM.
